assay: soluble on expression in E. coli; label from the status in PepcDB or PDB records

| Sequence | soluble on expression in E. coli |
| --- | --- |
| MPSIRLADLAQQLDAELHGDGDIVITGVASMQSAQTGHITFMVNPKYREHLGLCQASAVVMTQDDLPFAKSAALVVKNPYLTYARMAQILDTTPQPAQNIAPSAVIDATAKLGNNVSIGANAVIESGVELGDNVIIGAGCFVGKNSKIGAGSRLWANVTIYHEIQIGQNCLIQSGTVVGADGFGYANDRGNWVKIPQIGRVIIGDRVEIGACTTIDRGALDDTIIGNGVIIDNQCQIAHNVVIGDNTAVAGGVIMAGSLKIGRYCMIGGASVINGHMEICDKVTVTGMGMVMRPITEPGVYSSGIPLQPNKVWRKTAALVMNIDDMSKRLKSLERKVNQQD | soluble |
| MIDLNGQLHDVQATETLGQALAAARPVSAVVQLHGDLGAGKSTLARALLRALGVAGPIRSPTYTLVERYPLSTGDEAWHLDLYRIGHAGELDFLGLDEGSASLWLVEWPERGAGVLPPVDLDVELAVAGEGRSVRLLGRSAIGHAWMDRLSRQPQLQVLFAASREELEHHHHHH | not soluble |
| MGSDKIHHHHHHMAQVDLLNVKGEKVGTLEISDFVFNIDPNYDVMWRYVDMQLSNRRAGTASTKTRGEVSGGGRKPWPQKHTGRARHGSIRSPIWRHGGVVHGPKPRDWSKKLNKKMKKLALRSALSVKYRENKLLVLDDLKLERPKTKSLKEILQNLQLSDKKTLIVLPWKEEGYMNVKLSGRNLPDVKVIIADNPNNSKNGEKAVRIDGLNVFDMLKYDYLVLTRDMVSKIEEVLGNEAGKALTA | not soluble |
| GTEDTFWKDETDFNLALTSCYTPLKNALNGGYYGTRGVMLRIARADEVDFRNDISDVYTVNRFTNSNTNSLTQGMFYQFYNALYRTNSIMQKLEEKKEQFSTDFQNSVKGECLFIRGFYLFQLAKEFKDAPLRLTASQSPSTFPLAKSSQADIWAQAKEDLKTAASLLPITNKIGKPTQGAAYAALGKIYVYEENWQEAINVLEPLTQNPYTYKLVEDFNWNFDDTHENNAESIFELLIEDVGGTDLWGDGENINSTQSNTRPKEYAAAEVGGWYEANPTQQIMDIFWKEKDKDGNFDYRARCSVAWDYEGCTYYQRPFREVFAQDKWKTYWILKYQNWKTQKDEPAPPKSFINERAIRYADVLLMLAEAYMNKGALDTSIGYINQIRRRANLNDYSGPITKEGVFEDLVHQRAIEFFVEGERFYDLRRWGLLEQTLKTCDDTRYKNYQTGKSDNINKFNYFPIPAKELDTNPLCTPSEGW | soluble |
| MGKPVVAIVGRPNVGKSTIFNRIAGERISIVEDTPGVTRDRIYSSAEWLNYDFNLIDTGGIDIGDEPFLAQIRQQAEIAMDEADVIIFMVNGREGVTAADEEVAKILYRTKKPVVLAVNKLDNTEMRANIYDFYSLGFGEPYPISGTHGLGLGDLLDAVAEHFKNIPETKYNEEVIQFCLIGRPNVGKSSLVNAMLGEERVIVSNVAGTTRDAVDTSFTYNQQEFVIVDTAGMRKKGKVYETTEKYSVLRALKAIDRSEVVAVVLDGEEGIIEQDKRIAGYAHEAGKAVVIVVNKWDAVDKDESTMKEFEENIRDHFQFLDYAPILFMSALTKKRIHTLMPAIIKASENHSLRVQTNVLNDVIMDAVAMNPTPTHNGSRLKIYYATQVSVKPPSFVVFVNDPELMHFSYERFLENRIRDAFGFEGTPIKIFARARK | soluble |
| MQDTDFFSWRRTMLLRFQRMEAAEEAYHEIELQAQQLEYDYYSLCVRHPVPFTRPKVAFYTNYPESWVSYYQAKNFLAIDPVLNPENFSQGHLMWNDDLFSEAQPLWEAAHAHGLRRGVTQYLMLPNRALGFLSFSRCSTREIPILSDELQLKMQLLVRESLMALMRLNDEIVMTPEMNFSKREKEILKWTAEGKTSAEIAMILSITG | not soluble |
| MAKILVLYYSMYGHIETMAHAVAEGAKKVDGAEVIIKRVPETMPPEIFAKAGGKTQNAPVATPQELADYDAIIFGTPTRFGNMSGQMRTFLDQTGGLWASGSLYGKLGSVFSSTGTGGGQEQTITSTWTTLAHHGMVIVPIGYAAQELFDVSQVRGGTPYGATTIAGGDGSRQPSQEELSIARYQGEYVAGLAVKLNG | not soluble |
| SNAMKLTPNFYRDRVCLNVLAGSKDNAREIYDAAEGHVLVGVLSKNYPDVASAVVDMRDYAKLIDNALSVGLGAGDPNQSAMVSEISRQVQPQHVNQVFTGVATSRALLGQNETVVNGLVSPTGTPGMVKISTGPLSSGAADGIVPLETAIALLKDMGGSSIKYFPMGGLKHRAEFEAVAKACAAHDFWLEPTGGIDLENYSEILKIALDAGVSKIIPHIYSSIIDKASGNTRPADVRQLLEMTKQLVK | soluble |
